The text below walks through data of patent US20160039945A1 (Amgen, published 2016).

Assay [1] deals with T1, human proprotein convertase subtilisin kexin type 9 (self-cleaved, mature, secreted PCSK9) (human, UniProt Q8NBP7 31-692).
T1 construct: Self-cleavage means the pro-domain and the catalytic/C-terminal part are separate, associated polypeptides; also called huPCSK9; wild-type PCSK9
Description: solution equilibrium binding assay on BIAcore, pH 5.5. (In general: SPR reads the build-up and loss of mass on a sensor chip optically.)
Description: (§1) Binding of anti-PCSK9 antibodies to human and cynomolgus monkey PCSK9 was measured by solution equilibrium binding assay on BIAcore. Antibody was immobilized on the second flow cell of a CM5 chip using amine coupling (reagents provided by GE Healthcare, Piscataway, N.J.) with an approximate density of 6000 RU. The first flow cell was used as a background control. For assay at pH 7.4, 0.1 nM or 1.0 nM of PCSK9 were mixed with serial dilutions of antibody (ranging from 0.003 nM to 50 nM) in PBS plus 0.1 mg/mL BSA, 0.005% P20 and incubated at room temperature for 4 hours. For assay at pH 5.5, 0.1 nM or 1.0 nM of PCSK9 were mixed with serial dilutions of antibody (ranging from 0.003 nM to 50 nM) in 10 mM Sodium Citrate, pH 5.5, plus 150 mM NaCl, 0.1 mg/mL BSA, 0.005% P20 and incubated at room temperature for 4 hours. Binding of free PCSK9 in the mixed solutions was measured by injecting over the antibody coated chip surface. One hundred percent PCSK9 binding signal on the antibody surface was determined in the absence of antibody in the solution. A decreased PCSK9 binding response with increasing concentrations of antibody in solution indicated PCSK9 was binding to the antibody, preventing PCSK9 from binding to the immobilized antibody surface. Plotting the PCSK9 binding signal versus antibody concentration, the KD was obtained from nonlinear regression of the competition curves using an n-curve one-site homogeneous binding model provided in the KinExA Pro software.

Assay [2] concerns the target T2, cynomolgus PCSK9 (cynomolgus monkey, UniProt A8T662 31-692 (Macaca nemestrina entry), limits assumed).
T2 construct: also called cyPCSK9; cynomolgus monkey PCSK9
Described as above.
Description: as §1

Assay [3] concerns the target T1, human proprotein convertase subtilisin …. Nature of the assay: solution equilibrium binding assay on BIAcore, pH 7.4.
Description: as §1
Assay [4] addresses T2, cynomolgus PCSK9. Described as above.
Description: as §1
Assay [5] deals with T1, human proprotein convertase subtilisin …. Nature of the assay: ELISA, hybridoma supernatant on neutravidin-captured biotinylated PCSK9.
Description: A primary screen for antibodies which bind to wild-type PCSK9 was performed. The primary screen was performed on two harvests. The primary screen comprised an ELISA assay and was performed using the following protocol:
The plates were coated with neutravadin at a concentration of 4 μg/ml in 1×PBS/0.05% Azide, at a volume of 40 μl/well. The plates were incubated at 4° C. overnight. The plates were then washed using a Titertek plate washer (Titertek, Huntsville, Ala.). A 3-cycle wash was performed. The plates were blocked with 90 μl of 1×PBS/1% milk and incubated approximately 30 minutes at room temperature. The plates were then washed. Again, a 3-cycle wash was performed. The capture sample was biotinylated-PCSK9, and was added at 0.9 μg/ml in 1×PBS/1% milk/10 mM Ca²⁺ at a volume of 40 μl/well. The plates were then incubated for 1 hour at room temperature. Next, the plates were washed using the Titertek plate washer operated using a 3-cycle wash. 10 μl of supernatant was transferred into 40 μl of 1×PBS/1% milk/10 mM Ca²⁺ and incubated 1.5 hours at room temperature. Again the plates were washed using the Titertek plate washer operated using a 3-cycle wash. 40 μl/well of Goat anti-Human IgG Fc HRP at a concentration of 100 ng/ml (1:4000) in 1λ PBS/1% milk/10 mM Ca²⁺ was added to the plate and was incubated 1 hour at room temperature. The plates were washed once again, using a 3-cycle wash. Finally, 40 μl/well of One-step TMB (Neogen, Lexington, Ky.) was added to the plate and quenching with 40 μl/well of 1N hydrochloric acid was performed after 30 minutes at room temperature. OD's were read immediately at 450 nm using a Titertek plate reader. Positive binding was determined as 3 times the average of signal of the negative control which was hybridoma supernatant.
The target is the same in assay [6]. Description: competition ELISA, supernatant pre-incubated with b-PCSK9; competitor 26H5 coated on plate. In general terms: An ELISA detects its analyte on a solid surface through an enzyme-linked reagent.
Description: (§2) Hybridoma supernatants were then assayed for direct binding competition. […] The next day each hybridoma supernatant was preincubated with 100 ng/ml b-PCSK9 at a 1:5 final dilution. These samples were then incubated for 2 hours at RT. The precoated antibody capture plates were then washed and the pre-incubated samples of hybridoma Antibody supernatants and B-PCSK9 were added to the plates and incubated for 1 hour at room temperature. Detection of bound b-PCSK9 was done with streptavidin HRP (Thermo P21126) at 500 ng/ml in 1×PBS/1% non fat skim milk. Incubated for 1 hour then added chromogenic substrate TMB, 3,3′,5,5′-tetramethylbenzidine, 40 ul/well incubated anywhere from 15 minutes to 60 minutes depending on OD then stopped with one molar hydrochloric acid. Optical density at 450 nm read on Multiskan Ascent reader. A % Inhibition was then calculated by comparing the amount of bound b-PCSK9 after preincubation with anti-PCSK9 hybridoma sups versus negative control wells using irrelevant hybridoma supernatants. % Inhibition=1−(OD of Ab supernatant/B-PCSK9/OD of Neg. control supernatant/B-PCSK9).
For assay [7] the target is unchanged. Description: competition ELISA, supernatant pre-incubated with b-PCSK9; competitor 31H4 coated on plate.
Description: as §2
For assay [8], the target named is T3, human D374Y PCSK9 mutant (human, UniProt Q8NBP7 31-692, limits assumed).
T3 construct: It was biotinylated in the assay; also called biotinylated human D374Y PCSK9
T3 sequence (Q8NBP7 other isoform, or with tags, fused parts or gaps D374Y D374Y limits assumed): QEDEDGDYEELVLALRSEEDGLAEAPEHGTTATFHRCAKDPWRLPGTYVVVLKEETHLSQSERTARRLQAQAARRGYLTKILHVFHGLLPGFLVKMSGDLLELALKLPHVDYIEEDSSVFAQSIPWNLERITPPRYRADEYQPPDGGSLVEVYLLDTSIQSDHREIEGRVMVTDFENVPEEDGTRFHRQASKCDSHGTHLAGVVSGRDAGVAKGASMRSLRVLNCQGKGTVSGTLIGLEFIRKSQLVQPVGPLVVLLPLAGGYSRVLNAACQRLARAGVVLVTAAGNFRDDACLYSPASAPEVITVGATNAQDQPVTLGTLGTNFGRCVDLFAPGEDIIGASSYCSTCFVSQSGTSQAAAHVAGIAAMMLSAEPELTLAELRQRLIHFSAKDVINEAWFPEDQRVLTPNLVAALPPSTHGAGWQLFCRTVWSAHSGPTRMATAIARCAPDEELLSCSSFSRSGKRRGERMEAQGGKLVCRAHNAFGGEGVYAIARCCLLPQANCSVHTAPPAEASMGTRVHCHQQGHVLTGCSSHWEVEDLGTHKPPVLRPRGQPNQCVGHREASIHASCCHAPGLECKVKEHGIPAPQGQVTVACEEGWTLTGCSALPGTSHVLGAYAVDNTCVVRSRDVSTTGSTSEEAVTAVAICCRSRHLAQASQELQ
Description: receptor-ligand blocking ELISA: supernatant pre-incubated with biotinylated D374Y PCSK9, binding to captured LDLR.
Description: The plates were coated with goat anti-LDLR (R&D Cat #AF2148) at 2 μg/ml in 1λPBS/0.05% Azide at a volume of 40 μl/well. The plates were incubated at 4° C. overnight. The plates were then washed using a Titertek plate washer (Titertek, Huntsville, Ala.). A 3-cycle wash was performed. The plates were blocked with 90 μl of 1λ PBS/1% milk and incubated approximately 30 minutes at room temperature. The plates were then washed using the Titertek plate washer. A 3-cycle wash was performed. […] The plates were then incubated for 1 hour and 10 minutes at room temperature. […] The plates were then pre-incubated for about 1 hour and 30 minutes at room temperature. Next, the plates were washed using the Titertek plate washer operated using a 3-cycle wash. 50 μl/well of the pre-incubated mixture was transferred onto the LDLR coated ELISA plates and incubated for 1 hour at room temperature. To detect LDLR-bound b-PCSK9, 40 μl/well streptavidin HRP at 500 ng/ml in assay diluent was added to the plates. The plates were incubated for 1 hour at room temperature. The plates were again washed using a Titertek plate washer. A 3-cycle wash was performed. Finally, 40 μl/well of One-step TMB (Neogen, Lexington, Ky.) was added to the plate and was quenched with 40 μl/well of 1N hydrochloric acid after 30 minutes at room temperature. OD's were read immediately at 450 nm using a Titertek plate reader.

Where a chain is given by its changes, count along the chain named.

The Kd is the constant that tells how readily two partners part at equilibrium. A higher Kd goes with lower affinity.

T2 sequence (A8T662 31-692 K611R limits assumed): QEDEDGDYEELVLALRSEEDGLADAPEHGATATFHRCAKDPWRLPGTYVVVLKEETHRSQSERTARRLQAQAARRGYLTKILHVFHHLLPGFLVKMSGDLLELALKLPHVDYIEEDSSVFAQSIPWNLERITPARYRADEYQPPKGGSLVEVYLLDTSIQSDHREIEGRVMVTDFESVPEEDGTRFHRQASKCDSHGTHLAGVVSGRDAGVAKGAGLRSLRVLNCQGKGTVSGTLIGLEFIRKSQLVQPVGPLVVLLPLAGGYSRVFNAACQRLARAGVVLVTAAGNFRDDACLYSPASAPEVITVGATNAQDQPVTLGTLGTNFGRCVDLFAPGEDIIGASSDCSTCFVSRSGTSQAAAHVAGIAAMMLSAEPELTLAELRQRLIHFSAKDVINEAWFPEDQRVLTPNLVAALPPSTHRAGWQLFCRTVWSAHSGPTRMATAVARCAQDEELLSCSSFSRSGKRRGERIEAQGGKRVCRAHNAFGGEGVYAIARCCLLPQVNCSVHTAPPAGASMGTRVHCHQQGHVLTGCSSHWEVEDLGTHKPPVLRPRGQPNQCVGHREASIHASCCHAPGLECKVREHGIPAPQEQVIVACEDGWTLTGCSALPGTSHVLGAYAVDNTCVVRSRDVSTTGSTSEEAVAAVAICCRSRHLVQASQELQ
T1 sequence (Q8NBP7 other isoform, or with tags, fused parts or gaps): as the sequence (Q8NBP7 other isoform, or with tags, fused parts or gaps D374Y D374Y limits assumed) above, with Y344D counted along it

B1: 101F7 (antibody, human IgG2, lambda, V domains shown)
VH: QVQLVQSGAEVKKPGASVKVSCKASGYTFSSYGISWVRQAPGQGLEWMGWISAYNGNTNYAQKFQGRVTMTTDTSTSTAYMELRSLRSDDTAVYYCAREVRLAARPDHYYGMDVWGQGTTVTVSS
VL: QSVLTQPPSVSAAPGQKVTISCSGSSSNIGINYVSWYQLLPGTAPKLLIYDNNKRPLGIPDRFSGSKSGTSATLGITGLQTGDETDYYCGTWDSSLSAWVFGGGTKLTVLG
notes: Fully human XenoMouse antibody; also called L1/H1; VL1/VH1
For the molecule B1, the Kd in assay [1] turned out to be 0.016 nM; in assay [2], 0.008 nM; in assay [3], 0.006 nM; in assay [4], 0.008 nM. For the same molecule, in assay [5], the “Early primary screen OD” value was 3.45 OD (450 nm). Further, the “Late primary screen OD” value in assay [5] was 3.91 OD (450 nm). For the same molecule, the “% inhibition of 26H5 Binding” value in assay [6] was found to be 92%. The “% inhibition of 31H4 Binding” value in assay [7] worked out at 82%. Moreover, in assay [8], the “% R-L Inhibition” value is 94%.

B2: 103B7 (antibody, human IgG2, lambda, V domains shown)
VH: B1 VH
VL: B1 VL with A72V, T85A, Y88F, S95N
notes: Fully human XenoMouse antibody; also called L2/H2; VL2/VH1
Consider B2, for which the Kd in assay [1] turned out to be 0.018 nM; in assay [2] it was 0.022 nM; in assay [3] it was 0.007 nM; in assay [4], 0.011 nM. In assay [5], the “Early primary screen OD” value is 4.03 OD (450 nm). Further, the “Late primary screen OD” value in assay [5] is 3.46 OD (450 nm). Moreover, the “% inhibition of 26H5 Binding” value in assay [6] was 90%. The “% inhibition of 31H4 Binding” value in assay [7] turned out to be 79%. Moreover, in assay [8], the “% R-L Inhibition” value amounted to 93%.

B3: 131D12 (antibody, human IgG2, lambda, V domains shown)
VH: QGQLVESGGGVVQPGRSLRLSCAASGFTFSSYGMHWVRQAPGKGLEWVAVIWHDGSNKYYADSVKGRFTISRDNSKNTLYLQMNSLRAEDTAVYYCARVVPDNWNQDYYGMDVWGQGTTVTVSS
VL: SYELTQPPSVSVSPGQTASITCSGDKLGDKYACWFQQKPGQSPVLVIYQDSKRPFGIPDRFSGSKSGNTATLTISGTQAMEEADYYCQAWDSSTAVFGGGTKLTVLG
notes: Fully human XenoMouse antibody; also called L3/H3; VL3/VH2
Consider B3, for which the Kd in assay [1] came out at 0.12 nM; in assay [2] it was 3.1 nM; in assay [3] it was 0.067 nM; in assay [4] it was 1.5 nM. In addition, the “Early primary screen OD” value in assay [5] is 3.3 OD (450 nm). Also, in assay [5], the “Late primary screen OD” value was 3.56 OD (450 nm). Further, in assay [6], the “% inhibition of 26H5 Binding” value came out at 90%. The “% inhibition of 31H4 Binding” value in assay [7] amounted to 89%. The “% R-L Inhibition” value in assay [8] came out at 92%.

B4: 27B2 (antibody, human IgG2, lambda, V domains shown)
VH: QVQLVESGGGVVQPGRSLRLSCAASGFTFSSYGMHWVRQAPGKGLEWVAAIWYDGSNKYYAESVKGRFTISRDNSKYTLYLQVNSLRAEDTAVYYCARRGGLAARPGGLDVWGQGTTVTVAS
VL: SYELTQPPSVSVSPGQTISISCSGDKLGDKNACWYQQKPGQSPGLVIYQDSKRPLGIPARFSGSNSGNTATLTISGTQAMDEADYYCQAWDISTVVFGGGTKLTVLG
notes: Fully human XenoMouse antibody; Tested as hybridoma supernatant, the VH ends '...TTVTV' without the final 'SS'; also called 27B2.6; L4/H4
In the case of B4, in assay [5], the “Early primary screen OD” value was 4.9 OD (450 nm) and the “Late primary screen OD” value is 4.2 OD (450 nm). Besides, in assay [8], the “% R-L Inhibition” value was 93%.
